Measured values reported in patent US20220119492A1 (MEDIKINE, published 2022).
Bridge positions count the residues as written; N and C are the ends. Ends that are not written are not given here.

T1: human IL-2Rβ (CD122 protein, Fc Tag) (27-239) (human, UniProt P14784 27-239)
T1 construct: range 27-239; Bought protein; also called hu-IL-2Rβ subunit; IL-2Rβ subunit; not shown: Fc tag of the bought protein
T1 sequence (looked up): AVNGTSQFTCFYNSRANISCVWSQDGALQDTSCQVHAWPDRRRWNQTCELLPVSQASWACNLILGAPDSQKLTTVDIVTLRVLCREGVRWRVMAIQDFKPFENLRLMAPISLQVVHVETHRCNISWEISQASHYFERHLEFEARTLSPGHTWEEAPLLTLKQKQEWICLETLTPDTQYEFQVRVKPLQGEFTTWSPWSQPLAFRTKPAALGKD

B1: SEQ ID NO 2827 (peptide)
peptide: CYMHDCFMAQVGDLCDRFIS
modifications: not fully specified (bridges); also: disulfide between two of the three cysteines, pairing not given here

Molecular target: T1, human IL-2Rβ (CD122 protein, Fc Tag) …
Assay: phage ELISA competition
How it was run: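 Values are IC50s derived from absorbance in a competitive binding ELISA, where a phage tracer competes with test ligands for human IL-2Rβ-Fc across a ligand dilution series. After 50 μL of phage tracer was added without washing for 45 min at 4° C, bound phage was detected with TMB for 1 to 15 min at 25° C. The reaction was then stopped and absorbance read at 450 nm.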

IC50, < 100 µM:
WYPCEFAQLGELCDLLPFPYPA [SEQ ID NO 2779]
ERRWYPCWLASVGELCDLDMGD [SEQ ID NO 2791]
AWDWYPCSVAALGEICDLDIQD [SEQ ID NO 2760]
PTLITWYDCLFAEVGELCDM [SEQ ID NO 2784]
WYPCWIAQVGELCDLDEVSHGR [SEQ ID NO 2770]
RWDYWPCYIAQVGELCDLEVYE [SEQ ID NO 2793]
EISNWFLDCMFADVGDLCDL [SEQ ID NO 2785]
EGHWYPCWIAQLGELCDLDW [SEQ ID NO 2798]
WFPCWMAKVGDLCDVDEHQDPS [SEQ ID NO 2788]
WGGRYWCWMAKLGDLCDLEDEW [SEQ ID NO 2766]
WWPCEIAQIGELCDLEWVRHAE (disulfide 4-13 (inferred)) [SEQ ID NO 2806]
MGDSSSWFPCWMAQLGELCDME [SEQ ID NO 2789]
TNGVLDWWPCWMAQVGELCDLD [SEQ ID NO 2801]
WWPCWIAQVGELCDLEEESRES [SEQ ID NO 2781]
HRWYPCWLAHLGELCDLDPMS [SEQ ID NO 2796]
WEKLQNWYPCWIAQMGELCDLE [SEQ ID NO 2800]
AEYSGRYDCYIAKVGELCDI [SEQ ID NO 2775]
FGGKMDWYPCWIANLGELCDLK [SEQ ID NO 2787]
WYPCWVAQLGELCDLE [SEQ ID NO 2792]
WYPCWVAKLGELCDLE [SEQ ID NO 2802]
QTWYLPCWMAKLGELCDLGERD [SEQ ID NO 2764]
FHPCWRALLGELCDLETALGPS [SEQ ID NO 2773]
WRPCWMAHLGDLCDLEMANENP [SEQ ID NO 2753]
AQVWYPCWLAKVGELCDLDQWN (disulfide 7-16 (inferred)) [SEQ ID NO 2786]
KGSWQPCWFAKLGELCDLHPTS [SEQ ID NO 2763]
VDEFYPCSMAGLGELCDLERQN [SEQ ID NO 2759]
WWPCWLAQLGELCDLEVNGSLI [SEQ ID NO 2755]
SWRFLWQDCGRAHVGELCDL [SEQ ID NO 2776]
RDWWLPCEFALIGELCDLERSW [SEQ ID NO 2808]
WTGWSAFYPCSIANLGELCDLD [SEQ ID NO 2799]
MFRYYPCWIASIGELCDLEWGV (disulfide 7-16 (inferred)) [SEQ ID NO 2790]
WWPCDFAQIGELCDLGPRFTGE [SEQ ID NO 2807]
WWPCWVAKLGELCDLEGDASRV [SEQ ID NO 2778]
SWHAETWYPCWLAQVGELCDLD [SEQ ID NO 2810]
TEMWYPCWMAYQGELCDLDMTY [SEQ ID NO 2756]
RLVYDCLFAQVGDLCEVIS [SEQ ID NO 2768]
WRILWMQQCWRSHVVNQCAL [SEQ ID NO 2769]
QNASKGWYPCWIAHVGELCDWD [SEQ ID NO 2795]
WWPCWIADLGELCDLEGPPRGR (disulfide 4-13 (inferred)) [SEQ ID NO 2783]
EPRWYPCWMAQMGELCDMEMSD (disulfide 7-16 (inferred)) [SEQ ID NO 2765]
WYPCWLAQLGEVCDLDDGGGVF [SEQ ID NO 2754]
LQIRKLWACRIDLVGPFCLL (disulfide 9-18 (inferred)) [SEQ ID NO 2774]
SQRWYPCWVAHLGELCDLEGVV [SEQ ID NO 2762]
HQGFYSCRLARLGELCDLDTGW [SEQ ID NO 2758]
NRWWHPCWMARVGELCDLEPDA [SEQ ID NO 2777]
RPPWYPCWMARLGEVCDMDIML [SEQ ID NO 2761]
SYMHDCFMAQVGDLCDRFIS (disulfide 6-15 (inferred)) [SEQ ID NO 2780]
B1
TGEWWPCWVAEVGELCDLERGP [SEQ ID NO 2771]
AYYPCELAQLGELCDLYNI [SEQ ID NO 2803]
SLAHRSWYPCWLAQVGELCDLD [SEQ ID NO 2794]
FYPCWIAFVGELCDLE [SEQ ID NO 2797]
ARTQGWYDCLFAQVGELCDL [SEQ ID NO 2772]
WWPCWIAQVGELCDLDGPGRPT [SEQ ID NO 2767]
KWAWNPCYIARLGELCDLVEPE [SEQ ID NO 2782]
NDHTAWWPCYFAQVGDLCDLV [SEQ ID NO 2805]
ARTWWPCWRAKLGELCDLVVPE [SEQ ID NO 2757]
